Assay results: the supplement of paper PMC9170038

test system: MS2 coat protein; experiment: apparent KD of MS2 coat protein; higher = weaker reporter binding; settings: Eterna round: R107; input ligand: arginine 13.2 mM
Method in brief: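 Designed RNA switches, transcribed on-chip from Illumina sequencing clusters, were titrated with SNAP-549-labelled MS2 coat protein from 0.7 or 1.5 nM to 3 µM in twofold steps. The solution was 100 mM Tris-HCl pH 7.5, 80 mM KCl, 4 mM MgCl2, with constant ligand or without it. Apparent KD is the median over each design's normalised cluster binding-curve fits.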

Sequence	apparent KD of MS2 coat protein
UGGUAUGUAGGAAGGAGCGCAUACUUCACAUGAGGAUCACCCAUGUCGAGACGUGAGUCAGUGCAGGUAGGUCGCCUAGUUAUGA [Same State - Arginine B (Freestyle 22)]	35.8 nM
CGUAUGUAGACGGCCGCCACUGGAACAAGAGGAUCACCCUUGUACAGGGUGGGACUAUCGAGAGUCAGGACCGGGUCUACAUACA [Tryp B Ex t2]	112 nM
AAGAGUUGACAAAAGUCAGCUCAAACCGAAGGAGCGGGAGAAAUCCCAGGUAGGUCGCGGUUACAUGAGGAUCACCCAUGUUCCU [ArgAS 6 #BothOrNeither #OpenEnded]	68.1 nM
AGAGUUAGACAAAAGUCUAGCUCACCAGAAGGAGCGUCCGAAAGGACAGGUAGGUCGCUGGUGCAUGAGGAUCACCCAUGCUCCU [ArgAS 19 #OpenEnded #AlternativeMS2]	66.6 nM
ACGCGUCAAGAGUAAAAUCCGUCAAGUGAUACCAGCCACAACGUAGGCCCUUGGCAGCACAUGAGGAUCACCCAUGUAAUAAGGA [Gedigerace]	42.4 nM
ACCUAAGCCACAGAUACCAGAGUAAUAGGCCAAUUUCAAAACAUGAGGAUCACCCAUGUACUCCCUUGGCAGCUGCGAAUCGAAA [theeternabot_exclusion_MS2_Theo_B_30]	11.1 nM
AAAAUAUAGACGGCCGCCACUAUAAACAUGAGGAACAUGAGGAUCACCCAUGUAUGAGGAUCACCUAGGACCGGGUCAUAUAAAA [AstrosExyTryB#1]	28.6 nM
GGGUAAGAUCCGGAUACCAGCGAACAUGAGGAUCACCCAUGUGAAAUAAGAUAGAAUAAACGCCCUUGGCAGCCGAAAUAGAGUU [Same State Theophylline B GF 3]	41.3 nM
UGGGCUGGGUGCGUAAAGGGCCUGGCGCAUCGAGGACCGGUACGGCCGCCACUCGGCUGUACAUGAGGAUCACCCAUGUCAGGGU [#1 Same State - Tryptophan A Attempt #18 (HarryS)]	45.9 nM
GUACAUGAGGAUCACCCAUGUAUAGUUGAAGGAGCGACCAGAGGGUCAGGUAGGUCGCAGCACAUGGUGUAAACCCGUGUAUGCC [#1 Exclusion - Arginine A Attempt #22 (Inspired by Pi)]	29.6 nM
UAUCCACAUGAGGAUCACCCAUGUUAGGAAGGAGCGGUGAAUGAACCAGGUAGGUCGCCUAGCUGAGGACUGUCGAUGGAUUCGU [Exclusion - Arginine A (Freestyle 17)]	13.4 nM
UAUUAUCAGUCGGCCGCCACUGUCACAUGAGGAUCACCCAUGUAACUUGGGUUAUAUUUAAUAUACAGGACCGGGACAAAGGCUA [JR_ExcTryptoB_Sub012]	61.5 nM
GCUACAUGAGGAUCACCCAUGUAUGCGAGCCGAGGACCGGUACGGCCGCCACUCGCUUAACAUGAGGAUCACCCAUGUUGCUCGC [SSTA DOUBLE!!! :-D #18]	19.7 nM
ACAUGAGGAUCACCCAUGUGUGUAAGUCCUCGAGGACCGGUACGGCCGCCACUCGAACGAGUGUAACAUACUUGUUACAAGUAUG [SS Trp A s3]	18.5 nM
UGUACCUAGUCGGCCGCCACUCCAAAAGGAGAGGAUCACCCUCCUAAACGAGUCAAAGACUCGAGGAGGACCGGGACUAGGUACU [Palindromic MS2 #AlternativeMS2 #Palindrome #StaticStem]	30 nM
UGGUUUGUGAUGGAUACCAGCAGAGAAAACGUUUAUCCUAACAUGAGGAUCACCCAUGUAUGCCCUUGGCAGCUGUUGUGGGCUA [8.S]	27.5 nM
GACCUUGCGGGCGCCCGCAAGGUCGCGGAUACCAGCGAGGUCCAUCGCCCUUGGCAGCCGAACAUGAGGAUCACCCAUGUCGGUU [Same State - Theophylline A Attempt #5 (HarryS)]	8.39 nM
UAUCCACAUGAGGAUCACCCAUGUUAGGAAGGAGCGGUGAAUGAACCAGGUAGGUCGCCUAGGUGAGGAUCAUCUAUGGAUUCGU [Exclusion - Arginine A (Freestyle 11)]	30 nM

Sequence	apparent KD of MS2 coat protein
CCGGAGACCUCGGCCGCCACUCUCCAUGAGGAUCUCCCAUGUAACAUGAGGAUCACCCAUGUGCUGAGGACCGGGAGGUCCUCCU [Same State Tryptophan B GF 20]	18.7 nM
GCUGAACAUGAGGAUCACCCAUGUCCGGAUACCAGCGGACCUCAUCGCCCUUGGCAGCCGAACCAACAGCUUGUGGUGUUCACUC [theeternabot_sameState_MS2_Theo_A_10]	32.2 nM
AGUCUUGUAGGAAGGAGCGCAUACUUCACAUGAGGAUCACCCAUGUCAAGACGUGAGUCAGUGCAGGUAGGUCGCCUAACUAAGA [Same State - Arginine B (Freestyle 14)]	18.6 nM
AGAGUUAGACAAAAGUCUAGCUCACCAGAAGGAGCGUCCGAAAGGACAGGUAGGUCGCUGGUACAUGAGCAUCAGCCAUGUUCCU [ArgAS 15 #OpenEnded #AlternativeMS2]	18.1 nM
AACAUGAGGAUUGAUACCAGUCCAUGAGGAUCACAUGAGGAUCACCCAUGUGGAACAUGAGGCCCUUGGCAGCAGUACAACAUGA [Same State Theophylline B]	13.8 nM
GUAUAUUGAAAACAAUAUACAGUGGGUGAACGAGGACCGGUACGGCCGCCACUCGGACAUGAGGAUCACCCAUGUCCAUGUGAAA [AstrosExyTryA#8]	15.1 nM
AUCGUACCUGAUGAUACCAGCAAUUGCUCGUAACAUGAGGAUCACCCAUGUGAUCAGUGAUGCCCUUGGCAGCAUGAUCGGUGCA [Same State - Theophylline B (Freestyle 19)]	52.8 nM
AGCCCAUUACAUGAGGAUCACCCAUGUGAUACCAGUCAGGAAACUGACCCUUGGCAGCGCAUGAGGAUCACCCAUGCGCUGGGCA [Omei Theo A Exc A v6]	10 nM
ACUCGGUGUUUGUUGCUCCGAGUACGUGAUACCAGUUAAUUUUAUGGCCCUUGGCAGCAUGGGACAUGAGGAUCACCCAUGUUUA [#04 SameState-TheophyllineA]	125 nM
CCGAACAUGAGGAUCACCCAUGUUAGGGAUACCAGCUCAGACAUGGGCCCUUGGCAGCUCUAUAGCUGACGAAAGUCAGCAUCGG [#15 SameState-TheophyllineA]	36.1 nM
GGCCCUGCGAGCGCUCGCAGGGCCGCGGAUACCAGCGAGGUCCAUCGCCCUUGGCAGCCGAACAUGAGGAUCACCCAUGUCGGUC [#1 Same State - Theophylline A Attempt #11 (HarryS)]	11.4 nM
UGGUACAUGAGGAUCACCCAUGUUCCAGAUACCAGAUACCCGGUUAUCCCUUGGCAGCUGGUGUUACAUGAGGAUCACCCAUGUU [Exclusion Theophylline A GF16]	23.9 nM
UUAGAUAUGACAGAUACCAGCGUGUUGUAGAACAUGAGGAUCACCCAUGUAGUGAUCAAGCGCCCUUGGCAGCUGGUAUGUUUGG [7.X]	61.5 nM
GCUUGGGUGGCACGGCCCUGGCGGUGCGAUACCAGCACGGUAACGUGCCCUUGGCAGCGCACAUGAGGAUCACCCAUGUGGUGCG [#1 Exclusion - Theophylline A Attempt #24 (HarryS)]	13.1 nM
AAACAUUGCUGCGAUACCAGACAUGAGGAUCACCCAUGUACCAAGGUAAGAAAAUAACAUGUCCCUUGGCAGCGCAGCAAUGAAA [MAT - Exclusion Theophlline B - Mod of Eli - D2]	19.2 nM
AAUAAACAUGAGGAUCACCCAUGUAUGGAAGGAGCGGUGAAUAAACCAGGUAGGUCGCCAGUGUGAGGGUCAUCUAUGUAAUAAA [Exclusion - Arginine A (Freestyle 2)]	68.4 nM
CUGCCAUGCAGAGAUACCAGUGAGCUCAGAACAUGAGGAUCACCCAUGUAGGUUGCCGAUCACCCUUGGCAGCUCUGCAUGGCAG [*$+%!]	38.7 nM
UACAGCAGUACGGCCGCCACUCUAAGAUUGCGCGUUUAGGCCAUACAUGAGGAUCACCCAUGUCCGAGGACCGGGUACAGGAAUU [theeternabot_sameState_MS2_Trp_B_29]	88.3 nM

same assay, conditions: Eterna round: R107; input ligand: none

Sequence	apparent KD of MS2 coat protein
UGGUAUGUAGGAAGGAGCGCAUACUUCACAUGAGGAUCACCCAUGUCGAGACGUGAGUCAGUGCAGGUAGGUCGCCUAGUUAUGA [Same State - Arginine B (Freestyle 22)]	43 nM
